The test addresses protein phosphatase PP1 (endogenous), P36873. The test is described as follows: EGFP trap, immunoblotting, densitometric analysis. As to conditions: chain shown with the change; non-synchronized HEK293T cells; three independent experiments; parent: est. 1.0; read off a plot.

Chain of protein phosphatase PP1 (endogenous), P36873 (P36873 whole entry): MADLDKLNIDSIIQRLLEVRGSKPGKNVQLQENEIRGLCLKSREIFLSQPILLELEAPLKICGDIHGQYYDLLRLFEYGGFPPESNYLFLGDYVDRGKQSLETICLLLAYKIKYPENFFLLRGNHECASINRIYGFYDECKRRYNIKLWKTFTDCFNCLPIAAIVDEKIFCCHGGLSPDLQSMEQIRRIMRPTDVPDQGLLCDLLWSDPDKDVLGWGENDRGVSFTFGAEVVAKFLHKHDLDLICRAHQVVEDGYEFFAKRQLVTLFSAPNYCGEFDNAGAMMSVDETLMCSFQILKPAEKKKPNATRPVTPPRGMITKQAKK

B1: EGFP-tagged RepoMan-WT, Q69YH5 S400D; T412D; T419D (protein)
chain: MDANSKDKPPETKESAMNNAGNASFILGTGKIVTPQKHAELPPNPCTPDTFKSPLNFSTVTVEQLGITPESFVRNSAGKSSSYLKKCRRRSAVGARGSPETNHLIRFIARQQNIKNARKSPLAQDSPSQGSPALYRNVNTLRERISAFQSAFHSIKENEKMTGCLEFSEAGKESEMTDLTRKEGLSACQQSGFPAVLSSKRRRISYQRDSDENLTDAEGKVIGLQIFNIDTDRACAVETSVDLSEISSKLGSTQSGFLVEESLPLSELTETSNALKVADCVVGKGSSDAVSPDTFTAEVSSDAVPDVRSPATPACRRDLPTPKTFVLRSVLKKPSVKMCLESLQEHCNNLYDDDGTHPSLISNLPNCCKEKEAEDEENFEAPAFLNMRKRKRVTFGEDLDPEVFDESLPANDPLRKGGDPVCKKDFSGLSSLLLEQSPVPEPLPQPDFDDKGENLENIEPLQVSFAVLSSPNKSSISETLSGTDTFSSSNNHEKISSPKVGRITRTSNRRNQLVSVVEESVCNLLNTEVQPCKEKKINRRKSQETKCTKRALPKKSQVLKSCRKKKGKGKKSVQKSLYGERDIASKKPLLSPIPELPEVPEMTPSIPSIRRLGSGYFSSNGKLEEVKTPKNPVKRKDLLRHDPDLHMHQGYDKYDVSEFCSYIKSSSSLGNATSDEDPNTNIMNINENKNIPKAKNKSESENEPKAGTDSPVSCASVTEERVASDSPKPALTLQQGQEFSAGGQNAENLCQFFKISPDLNIKCERKDDFLGAAEGKLQCNRLMPNSQKDCHCLGDVLIENTKESKSQSEDLGRKPMESSSVVSCRDRKDRRRSMCYSDGRSLHLEKNGNHTPSSSVGSSVEISLENSELFKDLSDAIEQTFQRRNSETKVRRSTRLQKDLENEGLVWISLPLPSTSQKAKRRTICTFDSSGFESMSPIKETVSSRQKPQMAPPVSDPENSQGPAAGSSDEPGKRRKSFCISTLANTKATSQFKGYRRRSSLNGKGESSLTALERIEHNGERKQ
For B1, the ratio to parent was 0.19.

B2: EGFP-tagged RepoMan-WT, Q69YH5 T412D (protein)
chain: MDANSKDKPPETKESAMNNAGNASFILGTGKIVTPQKHAELPPNPCTPDTFKSPLNFSTVTVEQLGITPESFVRNSAGKSSSYLKKCRRRSAVGARGSPETNHLIRFIARQQNIKNARKSPLAQDSPSQGSPALYRNVNTLRERISAFQSAFHSIKENEKMTGCLEFSEAGKESEMTDLTRKEGLSACQQSGFPAVLSSKRRRISYQRDSDENLTDAEGKVIGLQIFNIDTDRACAVETSVDLSEISSKLGSTQSGFLVEESLPLSELTETSNALKVADCVVGKGSSDAVSPDTFTAEVSSDAVPDVRSPATPACRRDLPTPKTFVLRSVLKKPSVKMCLESLQEHCNNLYDDDGTHPSLISNLPNCCKEKEAEDEENFEAPAFLNMRKRKRVTFGEDLSPEVFDESLPANDPLRKGGTPVCKKDFSGLSSLLLEQSPVPEPLPQPDFDDKGENLENIEPLQVSFAVLSSPNKSSISETLSGTDTFSSSNNHEKISSPKVGRITRTSNRRNQLVSVVEESVCNLLNTEVQPCKEKKINRRKSQETKCTKRALPKKSQVLKSCRKKKGKGKKSVQKSLYGERDIASKKPLLSPIPELPEVPEMTPSIPSIRRLGSGYFSSNGKLEEVKTPKNPVKRKDLLRHDPDLHMHQGYDKYDVSEFCSYIKSSSSLGNATSDEDPNTNIMNINENKNIPKAKNKSESENEPKAGTDSPVSCASVTEERVASDSPKPALTLQQGQEFSAGGQNAENLCQFFKISPDLNIKCERKDDFLGAAEGKLQCNRLMPNSQKDCHCLGDVLIENTKESKSQSEDLGRKPMESSSVVSCRDRKDRRRSMCYSDGRSLHLEKNGNHTPSSSVGSSVEISLENSELFKDLSDAIEQTFQRRNSETKVRRSTRLQKDLENEGLVWISLPLPSTSQKAKRRTICTFDSSGFESMSPIKETVSSRQKPQMAPPVSDPENSQGPAAGSSDEPGKRRKSFCISTLANTKATSQFKGYRRRSSLNGKGESSLTALERIEHNGERKQ
In the case of B2, the ratio to parent came to 0.43.

Values taken from article PMC4703885.
